Substitutions are numbered along the chain they refer to. One block for each binder: values may come before it.
How the values were obtained:
[1] = molecular target: T1, 包含有His标签的重组人源TSLP蛋白(rhTSLP-His) (human); assay: cell ELISA: antibody blocks binding of 100 ng rhTSLP-His to hTSLPR/hIL-7Rα-293T/17 cells
T1 construct: also called rhTSLP-His重组蛋白; rhTSLP-His蛋白

[2] = molecular target: T1, 包含有His标签的重组人源TSLP蛋白(rhTSLP-His); assay: ELISA, rhTSLP-His coated at 100 ng/well
[3] = molecular target: T1, 包含有His标签的重组人源TSLP蛋白(rhTSLP-His); assay: cell ELISA: antibody blocks binding of rhTSLP-His to hTSLPR/hIL-7Rα-293T/17 cells
[4] = molecular target: T1, 包含有His标签的重组人源TSLP蛋白(rhTSLP-His); assay: ELISA as in Example 6, rhTSLP-His coated

- IC50 [1]: 13.4 µg/mL
- EC50 [2]: 12.4 nM
B1: 鼠源抗TSLP单克隆抗体5F10-2-25 (antibody, V domains shown)
VH: ELQQSGPQLVRPGASVKISCKASGYSFTSYWMHWVKQRPGQGLEWIGLIDPTDSEISLSQKFKDKATLTVDKLSSTAHMQLSSPTSEDSAVYYCARSLDGFFDQWGQGTTVTV
VL: DIDLTQSPASLSASVGETVTITCRTSENIYSYLAWYQQKQGKSPQLLVYNAKSLAEGVPSRFSGSGSGTQFSLKINSLQPEDFGSYYCQHHYDTPWTFGGGTKLENKT
notes: Mouse hybridoma monoclonal antibody

- IC50 [1]: 12 µg/mL
- EC50 [2]: 8.16 nM
B2: 鼠源抗TSLP单克隆抗体10D9-M-432 (antibody, V domains shown)
VH: VNCKESGPQLVRPGASVKISCKASAYSFTTYWMHWVKQRPGQGLEWIGLIDPSDSETTLNQKFKDKATLTVDKSSSTAYMQLTSPTSEDSAVYYCARSLDGYFDYWGQGTTVTVSS
VL: DIDLTQSPASLSASVGETVTITCRAGENIYSYLAWYQQKQGKSPQLLVYNAKILAESVPSRFSGSGSGTQFSLKINSLQPEDFGIYSCQHHYDTPWTFGGGTKLE
notes: as for B1

- IC50 [1]: 10.7 µg/mL
- EC50 [2]: 11.4 nM
B3: 鼠源抗TSLP单克隆抗体9F8-1-25 (antibody, V domains shown)
VH: VQLQQSGPQLVRPGASVKISCKASGYSFTTYWMHWVKQRPGQGLEWIGIIDPSDSETTLNQKFKDKATLTVDKSSSTAYIQLSSPTSEDSAVYYCTRSLDGYFDYWGQGTTVTV
VL: B2 VL
notes: as for B1

- IC50 [3]: 4.35 µg/mL
- EC50 [4]: 4.05 nM
B4: 抗TSLP人源化单克隆抗体M432-69H13L (antibody, human IgG2, lambda, V domains shown)
VH: EVQLVQSGAEVKKPGATVKISCCASAYSFTTYWMHWVQQAPGKGLEWMGLIDPSDSETTLNQKFKDRVTLTVDKSTDTAYMELSSLRSEDTAVYYCARSLDGYFDYWGQGTTVTVSS
VL: DIQLTQSPSSLSASVGDRVTITCRAGENIYSYLAWYQQKPGKAPKLLVYNAKILAEGVPSRFSGSGSGTDFTLTISSLQPEDFATYYCQHHYDTPWTFGGGTKLTVLG

- IC50 [3]: 7.57 µg/mL
- EC50 [4]: 31.6 nM
B5: 抗TSLP人源化单克隆抗体5F10-69H13L (antibody, human IgG2, lambda, V domains shown)
VH: B4 VH with A26G, T31S, S54T, T58I, T59S, N61S, Y103F, Y106Q
VL: B4 VL

- IC50 [3]: 4.05 µg/mL
- EC50 [4]: 9.52 nM
B6: 抗TSLP人源化单克隆抗体9F8-46H13L (antibody, human IgG2, lambda, V domains shown)
VH: B4 VH with E1Q, T17S, I20V, A26G, Q38R, K43Q, L50I, D77S, A97T
VL: B4 VL

- IC50 [1]: 6.22 µg/mL
- IC50 [3]: 8.93 µg/mL
- EC50 [4]: 1.8 nM
- EC50 [2]: 2.93 nM
B7: Tezepelumab(安进和阿斯利康合作开发抗体) (antibody, V domains shown)
VH: QMQLVESGGGVVQPGRSLRLSCAASGFTFRTYGMHWVRQAPGKGLEWVAVIWYDGSNKHYADSVKGRFTITRDNSKNTLNLQMNSLRAEDTAVYYCARAPQWELVHEAFDIWGQGTMVTVSS
VL: SYVLTQPPSVSVAPGQTARITCGGNNLGSKSVHWYQQKPGQAPVLVVYDDSDRPSWIPERFSGSNSGNTATLTISRGEAGDEADYYCQVWDSSSDHVVFGGGTKLTVLG

Source: patent CN115028722A (BIOCELLS BEIJING BIOTECH CO LTD, dated 2022)
